# Assay results taken from the RNAGym collection of RNA variant scans (doi:10.1101/gr.219683.116).
# B1: mRNA-splicing (parent)
# chain: AGUUGCUGCUGGGAGCUCCAGCACAGUGAAAUGGACAGAAGGGCAGAGCAA
# Variants of: B1
# Test: exon inclusion enrichment index; higher = more inclusion; WT1 exon 5 minigene, HEK293
row,Variant,exon inclusion enrichment index
1,G5C C6A U7C G8A U10A A37U G38U,0.0186
2,G5C C6A U7C G8A U10A A37U G38A,0.0332
3,G5C C6A U7C G8A U10A A37U G38C,0.0672
4,G5C C6A U7C G8A U10A A31U U32G,0.0217
5,G5C C6A U7C G8A U10A A31U U32A,0.00816
6,G5C C6A U7C G8A U10A A31U U32C,0.293
7,G5C C6A U7C G8A U10A A29U A30U,0.0185
8,G5C C6A U7C G8A U10A A29U A30C,0.0766
9,G5C C6A U7C G8A U10A A29U A30G,0.125
10,G5C C6A U7C G8A U10A A25G G26C,0.647
11,G5C C6A U7C G8A U10A A25G G26U,0.306
12,G5C C6A U7C G8A U10A A25G G26A,0.663
13,G5C C6A U7C G8A U10A A39C A40U,0.0879
14,G5C C6A U7C G8A U10A A39C A40G,0.142
15,G5C C6A U7C G8A U10A A39C A40C,0.334
16,G5C C6A U7C G8A C9G,0.446
17,G5C C6A U7C G8A C9U,0.616
18,G5C C6A U7C G8A U10A A29G A30U,0.0104
19,G5C C6A U7C G8A U10A A29G A30G,0.0879
20,G5C C6A U7C G8A U10A A29G A30C,0.0319
21,G5C C6A U7C G8A U10A A31C,0.155
22,G5C C6A U7C G8A U10A A31U,0.094
23,G5C C6A U7C G8A U10A A31G,0.141
24,G5C C6A U7C G8A U10A,0.12

row,Variant,exon inclusion enrichment index
1,G5C C6A U7C G8A U10A A14U G15C,0.0301
2,G5C C6A U7C G8A U10A A14U G15A,0.00771
3,G5C C6A U7C G8A U10A A14U G15U,0.0233
4,G5C C6A U7C G8A U10A A39U A40U,0.036
5,G5C C6A U7C G8A U10A A39U A40C,0.195
6,G5C C6A U7C G8A U10A A39U A40G,0.0214
7,G5C C6A U7C G8A U10A A30G,0.0971
8,G5C C6A U7C G8A U10A A30U,0.0402
9,G5C C6A U7C G8A U10A A30C,0.0836
10,G5C C6A U7C G8A U10A A14G G15U,0.0158
11,G5C C6A U7C G8A U10A A14G G15A,0.119
12,G5C C6A U7C G8A U10A A14G G15C,0.0391
13,G5C C6A U7C G8A U10A A20G G21C,0.164
14,G5C C6A U7C G8A U10A A20G G21A,0.186
15,G5C C6A U7C G8A U10A A20G G21U,0.177
16,G5C C6A U7C G8A U10A A47G G48U,0.00361
17,G5C C6A U7C G8A U10A A47G G48A,0.0475
18,G5C C6A U7C G8A U10A A47G G48C,0.0266
19,G5C C6A U7C G8A U10A A39G A40C,0.119
20,G5C C6A U7C G8A U10A A39G A40U,0.0129
21,G5C C6A U7C G8A U10A A39G A40G,0.0106
22,G5C C6A U7C G8A U10A A45G G46A,0.559
23,G5C C6A U7C G8A U10A A45G G46C,0.26
24,G5C C6A U7C G8A U10A A45G G46U,0.0847

row,Variant,exon inclusion enrichment index
1,G5C C6A U7C G8A C9U U10C,2.03
2,G5C C6A U7C G8A C9U U10A,0.0185
3,G5C C6A U7C G8A C9U U10G,0.525
4,G5C C6A U7C G8A U10A A14C G15U,0.00827
5,G5C C6A U7C G8A U10A A14C G15A,0.0306
6,G5C C6A U7C G8A U10A A14C G15C,0.00871
7,G5C C6A U7C G8A U10A A37C G38C,0.176
8,G5C C6A U7C G8A U10A A37C G38U,0.0457
9,G5C C6A U7C G8A U10A A37C G38A,0.149
10,G5C C6A U7C G8A G11C,1.01
11,G5C C6A U7C G8A G11U,0.768
12,G5C C6A U7C G8A G11A,0.126
13,G5C C6A U7C G8A U10A A39G,0.0326
14,G5C C6A U7C G8A U10A A39U,0.00393
15,G5C C6A U7C G8A U10A A39C,0.0137
16,G5C C6A U7C G8A U10A A47C G48C,0.224
17,G5C C6A U7C G8A U10A A47C G48U,0.0993
18,G5C C6A U7C G8A U10A A47C G48A,0.0538
19,G5C C6A U7C G8A U10A A45C G46C,0.0869
20,G5C C6A U7C G8A U10A A45C G46A,0.0623
21,G5C C6A U7C G8A U10A A45C G46U,0.0352
22,G5C C6A U7C G8A U10A A40C,0.355
23,G5C C6A U7C G8A U10A A40G,0.0695
24,G5C C6A U7C G8A U10A A40U,0.0713

row,Variant,exon inclusion enrichment index
1,G5C C6A U7C G8A U10A A14C,0.0603
2,G5C C6A U7C G8A U10A A14G,0.0477
3,G5C C6A U7C G8A U10A A14U,0.0358
4,G5C C6A U7C G8A U10A A40C G41A,0.0281
5,G5C C6A U7C G8A U10A A40C G41C,0.71
6,G5C C6A U7C G8A U10A A40C G41U,0.0519
7,G5C C6A U7C G8A U10A A35G C36U,0.00147
8,G5C C6A U7C G8A U10A A35G C36G,0.00494
9,G5C C6A U7C G8A U10A A35G C36A,0.0625
10,G5C C6A U7C G8A U10A A31C U32A,0.0301
11,G5C C6A U7C G8A U10A A31C U32C,0.385
12,G5C C6A U7C G8A U10A A31C U32G,0.221
13,G5C C6A U7C G8A C9G U10G,0.11
14,G5C C6A U7C G8A C9G U10C,1.42
15,G5C C6A U7C G8A C9G U10A,0.545
16,G5C C6A U7C G8A U10A A25C G26A,0.352
17,G5C C6A U7C G8A U10A A25C G26U,0.241
18,G5C C6A U7C G8A U10A A25C G26C,0.037
19,G5C C6A U7C G8A U10A A20U G21C,0.0942
20,G5C C6A U7C G8A U10A A20U G21U,0.037
21,G5C C6A U7C G8A U10A A20U G21A,0.0323
22,G5C C6A U7C G8A U10A A30C A31U,0.168
23,G5C C6A U7C G8A U10A A30C A31G,0.372
24,G5C C6A U7C G8A U10A A30C A31C,0.314

row,Variant,exon inclusion enrichment index
1,G5C C6A U7C G8A U10A A47C,0.232
2,G5C C6A U7C G8A U10A A47G,0.0221
3,G5C C6A U7C G8A U10A A47U,0.108
4,G5C C6A U7C G8A U10A A35U C36A,0.00105
5,G5C C6A U7C G8A U10A A35U C36G,0.00777
6,G5C C6A U7C G8A U10A A35U C36U,0.00092
7,G5C C6A U7C G8A U10A A45G,0.276
8,G5C C6A U7C G8A U10A A45C,0.18
9,G5C C6A U7C G8A U10A A45U,0.211
10,G5C C6A U7C G8A U10A A25G,0.601
11,G5C C6A U7C G8A U10A A25U,0.205
12,G5C C6A U7C G8A U10A A25C,0.77
13,G5C C6A U7C G8A U10A A23C C24G,0.664
14,G5C C6A U7C G8A U10A A23C C24A,0.209
15,G5C C6A U7C G8A U10A A23C C24U,0.0196
16,G5C C6A U7C G8A U10A A29C A30G,0.291
17,G5C C6A U7C G8A U10A A29C A30C,0.217
18,G5C C6A U7C G8A U10A A29C A30U,0.0384
19,G5C C6A U7C G8A U10A A25U G26A,0.172
20,G5C C6A U7C G8A U10A A25U G26C,0.181
21,G5C C6A U7C G8A U10A A25U G26U,0.111
22,G5C C6A U7C G8A U10A A23U C24G,0.159
23,G5C C6A U7C G8A U10A A23U C24A,0.0357
24,G5C C6A U7C G8A U10A A23U C24U,0.00309

row,Variant,exon inclusion enrichment index
1,G5C C6A U7C G8A U10A A30U A31G,0.105
2,G5C C6A U7C G8A U10A A30U A31C,0.143
3,G5C C6A U7C G8A U10A A30U A31U,0.0758
4,G5C C6A U7C G8A U10A A45U G46A,0.0675
5,G5C C6A U7C G8A U10A A45U G46U,0.0227
6,G5C C6A U7C G8A U10A A45U G46C,0.0541
7,G5C C6A U7C G8A U10A A40U G41U,0.0362
8,G5C C6A U7C G8A U10A A40U G41C,0.451
9,G5C C6A U7C G8A U10A A40U G41A,0.00421
10,G5C C6A U7C G8A U10A A20C,0.142
11,G5C C6A U7C G8A U10A A20U,0.199
12,G5C C6A U7C G8A U10A A20G,0.306
13,G5C C6A U7C G8A U10A A20C G21U,0.0192
14,G5C C6A U7C G8A U10A A20C G21C,0.00894
15,G5C C6A U7C G8A U10A A20C G21A,0.0158
16,G5C C6A U7C G8A U10A A37G G38U,0.0217
17,G5C C6A U7C G8A U10A A37G G38A,0.104
18,G5C C6A U7C G8A U10A A37G G38C,0.228
19,G5C C6A U7C G8A U10A A47U G48C,0.0757
20,G5C C6A U7C G8A U10A A47U G48A,0.071
21,G5C C6A U7C G8A U10A A35C C36G,0.107
22,G5C C6A U7C G8A U10A A35C C36A,0.0377
23,G5C C6A U7C G8A U10A A35C C36U,0.0111
24,G5C C6A U7C G8A U10A A35G,0.0247

row,Variant,exon inclusion enrichment index
1,G5C C6A U7C G8A U10A A35U,0.00802
2,G5C C6A U7C G8A U10A A35C,0.0232
3,G5C C6A U7C G8A U10A A23G C24A,0.48
4,G5C C6A U7C G8A U10A A23G C24G,0.559
5,G5C C6A U7C G8A U10A A23G C24U,0.0154
6,G5C C6A U7C G8A U10A A29U,0.035
7,G5C C6A U7C G8A U10A A29G,0.202
8,G5C C6A U7C G8A U10A A29C,0.0911
9,G5C C6A U7C G8A U10A A30G A31C,0.00678
10,G5C C6A U7C G8A U10A A30G A31G,0.0207
11,G5C C6A U7C G8A U10A A30G A31U,0.018
12,G5C C6A U7C G8A U10A A23G,0.287
13,G5C C6A U7C G8A U10A A23U,0.0425
14,G5C C6A U7C G8A U10A A23C,0.0903
15,G5C C6A U7C G8A U10A A40G G41A,0.0264
16,G5C C6A U7C G8A U10A A40G G41U,0.0884
17,G5C C6A U7C G8A U10A A40G G41C,0.666
18,G5C C6A U7C G8A U10A A37U,0.0984
19,G5C C6A U7C G8A U10A A37G,0.237
20,G5C C6A U7C G8A U10A A37C,0.426
21,G5C C6A U7C G8A U10A A31G U32A,0.854
22,G5C C6A U7C G8A U10A A31G U32C,0.646
23,G5C C6A U7C G8A U10A A31G U32G,0.0429
